Data from PMC3251565.

Biological target: platelet integrin αIIbβ3 (human (endogenous in platelets)) (UniProt P08514)

## Rhodostomin (from UniProt P30403) (natural protein)
  IC50 (KI in the text) of inhibition of ADP-induced platelet aggregation in human PRP: 83.2 nM
